US20150147274A1 (CANCER RESEARCH TECHNOLOGY, published 2015)

Columns and labels:
[1] = molecular target: T1, MET928.6H (hexahistine tagged MET928) (human, UniProt P08581 25-928); assay: plate binding assay: 100 nM MET928.6H added to NK1-coated microplate, bound MET detected with anti-5xHis and DELFIA Eu-N1 anti-mouse IgG (time-resolved fluorescence) [right panel]
T1 construct: also called MET ectodomain; not shown: hexahistidine tag
Description: FAb at 5-500 nM (FIG. 8) was mixed with 100 nM MET928.6H (hexahistine tagged MET928) and the mixture incubated at room temperature for one hour, prior to addition of the MET928.6H/FAb mixture to microplates coated with HGF/SF or the fragment NK1 and a further one-hour incubation. Bound MET928.6H was then detected with anti-5xHis (Qiagen) followed by DELFIA® Eu-N1 rabbit anti-mouse-IgG, exposure to DELFIA® enhancement solution and quantitation by time-resolved fluorescence on a Fusion instrument (Perkin Elmer).

[2] = molecular target: T2, MET928 (cMET protein derived from construct 25-928) (human, UniProt P08581 25-928); assay: SPR (Biacore), CM5 chip coated with MET928
T2 construct: MET ectodomain, residues 1-24 are the leader; produced in Lec 8 cells; background text says the ectodomain is furin-cleaved into alpha (25-307) and beta chains; biotinylated form used in selections; also called MET928 extracellular domain; Met extracellular domain
T2 sequence (P08581 25-928): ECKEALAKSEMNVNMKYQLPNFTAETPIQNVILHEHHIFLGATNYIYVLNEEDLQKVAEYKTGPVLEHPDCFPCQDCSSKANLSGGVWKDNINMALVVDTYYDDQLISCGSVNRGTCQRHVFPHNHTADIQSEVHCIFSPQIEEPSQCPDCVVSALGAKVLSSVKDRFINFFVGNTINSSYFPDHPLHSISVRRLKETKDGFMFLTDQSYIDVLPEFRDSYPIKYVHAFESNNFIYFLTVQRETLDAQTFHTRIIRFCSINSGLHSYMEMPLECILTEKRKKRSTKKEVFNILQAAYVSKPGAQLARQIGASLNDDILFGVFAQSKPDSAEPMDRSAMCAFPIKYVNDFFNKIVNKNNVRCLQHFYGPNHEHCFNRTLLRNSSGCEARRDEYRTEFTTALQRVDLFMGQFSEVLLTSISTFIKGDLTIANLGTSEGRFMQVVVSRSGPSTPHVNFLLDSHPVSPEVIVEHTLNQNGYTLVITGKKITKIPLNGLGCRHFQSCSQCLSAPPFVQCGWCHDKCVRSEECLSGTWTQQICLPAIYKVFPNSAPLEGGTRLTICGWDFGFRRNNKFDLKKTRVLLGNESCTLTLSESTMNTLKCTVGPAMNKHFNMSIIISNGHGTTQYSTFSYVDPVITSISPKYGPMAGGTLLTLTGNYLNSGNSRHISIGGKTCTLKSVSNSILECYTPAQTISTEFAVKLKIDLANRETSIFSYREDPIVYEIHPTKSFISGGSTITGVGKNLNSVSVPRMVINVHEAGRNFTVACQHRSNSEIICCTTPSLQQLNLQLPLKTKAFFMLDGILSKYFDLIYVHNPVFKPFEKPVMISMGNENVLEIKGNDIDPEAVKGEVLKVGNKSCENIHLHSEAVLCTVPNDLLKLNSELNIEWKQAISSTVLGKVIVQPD

T1 sequence (P08581 25-928): as above

binding result [1]: binds | binding result [2]: binds
B1: NK1 fragment of HGF/SF (produced in Pichia pastoris) (ligand)
chain: EAEAYVEGQRKRRNTIHEFKKSAKTTLIKIDPALKIKTKKVNTADQCADRCTRNKGLPFTCKAFVFDKARKQCLWFPFNSMSSGVKKEFGHEFDLYENKDYIRNCIIGKGRSYKGTVSITKSGIKCQPWSSMIPHEHSFLPSSYRGKDLQENYCRNPRGEEGGPWCFTSNPEVRYEVCDIPQCSEVE
notes: The first two (EA) or four (EAEA) amino acids may be removed during processing; also called NK1.B1; NK1.B2
